Laboratory results from IntAct's records for PubMed 16407301.

B1: Mitogen-activated protein kinase kinase kinase 3 (Homo sapiens), Q99759 (parent)
chain: MDEQEALNSIMNDLVALQMNRRHRMPGYETMKNKDTGHSNRQSDVRIKFEHNGERRIIAFSRPVKYEDVEHKVTTVFGQPLDLHYMNNELSILLKNQDDLDKAIDILDRSSSMKSLRILLLSQDRNHNSSSPHSGVSRQVRIKASQSAGDINTIYQPPEPRSRHLSVSSQNPGRSSPPPGYVPERQQHIARQGSYTSINSEGEFIPETSEQCMLDPLSSAENSLSGSCQSLDRSADSPSFRKSRMSRAQSFPDNRQEYSDRETQLYDKGVKGGTYPRRYHVSVHHKDYSDGRRTFPRIRRHQGNLFTLVPSSRSLSTNGENMGLAVQYLDPRGRLRSADSENALSVQERNVPTKSPSAPINWRRGKLLGQGAFGRVYLCYDVDTGRELASKQVQFDPDSPETSKEVSALECEIQLLKNLQHERIVQYYGCLRDRAEKTLTIFMEYMPGGSVKDQLKAYGALTESVTRKYTRQILEGMSYLHSNMIVHRDIKGANILRDSAGNVKLGDFGASKRLQTICMSGTGMRSVTGTPYWMSPEVISGEGYGRKADVWSLGCTVVEMLTEKPPWAEYEAMAAIFKIATQPTNPQLPSHISEHGRDFLRRIFVEARQRPSAEELLTHHFAQLMY

Variants of: B1
Conditions: with mk03_human MAPK3, P27361
mk03_human MAPK3, P27361, sequence (P27361 whole entry): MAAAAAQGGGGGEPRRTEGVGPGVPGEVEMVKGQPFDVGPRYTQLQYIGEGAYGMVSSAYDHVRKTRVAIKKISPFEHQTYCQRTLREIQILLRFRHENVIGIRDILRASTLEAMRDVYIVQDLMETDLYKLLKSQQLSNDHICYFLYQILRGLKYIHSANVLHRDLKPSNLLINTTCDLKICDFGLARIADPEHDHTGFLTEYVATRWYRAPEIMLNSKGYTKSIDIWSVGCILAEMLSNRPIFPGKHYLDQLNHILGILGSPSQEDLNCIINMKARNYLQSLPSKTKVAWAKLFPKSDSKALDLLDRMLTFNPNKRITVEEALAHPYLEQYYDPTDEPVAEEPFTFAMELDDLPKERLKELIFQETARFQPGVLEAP

Effect of a mutation on the interaction, disrupting interaction:
S526A
K391M
T530A
